Reference: patent publication US20120316071A1 (published 2012)

Key:
[1] = target: T1, Recombinant Human DLL4 (delta-like protein 4) (human, UniProt Q9NR61 27-524); experiment: ELISA on plate-coated DLL4, 100 nM Fab, signal minus noise
T1 construct: Bought recombinant protein (R&D Systems Cat#1506-D4/CF); also called rHuman DLL4; Delta-like 4

[2] = target: T1, Recombinant Human DLL4 (delta-like …); experiment: ECL (MSD) multispot binding assay, DLL4 immobilised, 10 nM Fab, DLL4 signal over blank
[3] = target: T2, Recombinant Human DLL4 (delta-like protein 4) (human, UniProt Q9NR61 27-529); experiment: ELISA on coated DLL4, 100 nM Fab
T2 construct: Bought recombinant human DLL4 (R&D Systems Cat#1506-D4/CF), coated on the plate; also called rHuman DLL4; Delta-like 4

[4] = target: T2, Recombinant Human DLL4 (delta-like …); experiment: 96-well plate ECL (MSD) binding assay on coated DLL4, 10 nM Fab

Binder | ELISA (Signal-Noise) [1] | Signal/Noise [10 nM Fab] [2] | ELISA signal [3] | ECL signal [4]
Fab VH1-46_IGHD6-6*01_IGHJ1*01 S102A/S103P/S104F/H111F T58A & L6_IGKJ1*01 (Fab, V domains shown, Fab made in E. coli: CH1 with His6/Flag tags from Plasmid A, kappa constant region from Plasmid C; also called APFF T58A) VH: QVQLVQSGAEVKKPGASVKVSCKASGYTFTSYYMHWVRQAPGQGLEWMGIINPSGGSASYAQKFQGRVTMTRDTSTSTVYMELSSLRSEDTAVYYCAREEYAPFSAEYFQFWGQGTLVTVSS VL: not shown | 0.14 | 142 | – | –
Fab VH1-46_IGHD6-6*01_IGHJ1*01 S102A/S103P/S104F/H111F S54T & L6_IGKJ1*01 (Fab, V domains shown, Fab made in E. coli; CH1 with tags and kappa CL are not included; also called APFF S54T) VH: QVQLVQSGAEVKKPGASVKVSCKASGYTFTSYYMHWVRQAPGQGLEWMGIINPTGGSTSYAQKFQGRVTMTRDTSTSTVYMELSSLRSEDTAVYYCAREEYAPFSAEYFQFWGQGTLVTVSS VL: not shown | – | – | 0.08 | 57200
Fab VH1-46_IGHD6-6*01_IGHJ1*01 S102A/S103P/S104F/H111F S54A/S59N & L6_IGKJ1*01 (Fab, V domains shown, Fab made in E. coli; CH1 with tags and kappa CL are not included; also called APFF S54A/S59N) VH: QVQLVQSGAEVKKPGASVKVSCKASGYTFTSYYMHWVRQAPGQGLEWMGIINPAGGSTNYAQKFQGRVTMTRDTSTSTVYMELSSLRSEDTAVYYCAREEYAPFSAEYFQFWGQGTLVTVSS VL: not shown | – | – | 0.1 | 17300
Fab VH1-46_IGHD6-6*01_IGHJ1*01 S102A/S103P/S104F/H111F S54E & L6_IGKJ1*01 (Fab, V domains shown, Fab made in E. coli; CH1 with tags and kappa CL are not included; also called APFF S54E) VH: QVQLVQSGAEVKKPGASVKVSCKASGYTFTSYYMHWVRQAPGQGLEWMGIINPEGGSTSYAQKFQGRVTMTRDTSTSTVYMELSSLRSEDTAVYYCAREEYAPFSAEYFQFWGQGTLVTVSS VL: not shown | – | – | 0.04 | 36800
Fab VH1-46_IGHD6-6*01_IGHJ1*01 S102A/S103P/S104F/H111F S54G & L6_IGKJ1*01 (Fab, V domains shown, Fab made in E. coli; CH1 with tags and kappa CL are not included; also called APFF S54G) VH: QVQLVQSGAEVKKPGASVKVSCKASGYTFTSYYMHWVRQAPGQGLEWMGIINPGGGSTSYAQKFQGRVTMTRDTSTSTVYMELSSLRSEDTAVYYCAREEYAPFSAEYFQFWGQGTLVTVSS VL: not shown | – | – | 0.06 | 47000
Fab VH1-46_IGHD6-6*01_IGHJ1*01 S102A/S103P/S104F/H111F S54L & L6_IGKJ1*01 (Fab, V domains shown, Fab made in E. coli; CH1 with tags and kappa CL are not included; also called APFF S54L) VH: QVQLVQSGAEVKKPGASVKVSCKASGYTFTSYYMHWVRQAPGQGLEWMGIINPLGGSTSYAQKFQGRVTMTRDTSTSTVYMELSSLRSEDTAVYYCAREEYAPFSAEYFQFWGQGTLVTVSS VL: not shown | – | – | 0.02 | 28200
Fab VH1-46_IGHD6-6*01_IGHJ1*01 S102A/S103P/S104F/H111F S54N & L6_IGKJ1*01 (Fab, V domains shown, Fab made in E. coli; CH1 with tags and kappa CL are not included; also called APFF S54N) VH: QVQLVQSGAEVKKPGASVKVSCKASGYTFTSYYMHWVRQAPGQGLEWMGIINPNGGSTSYAQKFQGRVTMTRDTSTSTVYMELSSLRSEDTAVYYCAREEYAPFSAEYFQFWGQGTLVTVSS VL: not shown | – | – | 0.02 | 31700
Fab VH1-46_IGHD6-6*01_IGHJ1*01 S102A/S103P/S104F/H111F S54P & L6_IGKJ1*01 (Fab, V domains shown, Fab made in E. coli; CH1 with tags and kappa CL are not included; also called APFF S54P) VH: QVQLVQSGAEVKKPGASVKVSCKASGYTFTSYYMHWVRQAPGQGLEWMGIINPPGGSTSYAQKFQGRVTMTRDTSTSTVYMELSSLRSEDTAVYYCAREEYAPFSAEYFQFWGQGTLVTVSS VL: not shown | – | – | 0 | 10100
